{"source": "paper PMC3526295", "binders": {"B1": {"name": "ssDNA90 (ssDNA)", "DNA": "AATTCTCATTTTACTTACCGGACGCTATTAGCAGTGGCAGATTGTACTGAGAGTGCACCATATGCGGTGTGAAATACCGCACAGATGCGT"}, "B2": {"name": "dsDNA90 (dsDNA)", "DNA 1": "B1 DNA", "DNA 2": "ACGCATCTGTGCGGTATTTCACACCGCATATGGTGCACTCTCAGTACAATCTGCCACTGCTAATAGCGTCCGGTAAGTAAAATGAGAATT"}}, "target": "T1, Mre11-W243R (Homo sapiens, UniProt P49959 1-708, W243R)", "T1 sequence": "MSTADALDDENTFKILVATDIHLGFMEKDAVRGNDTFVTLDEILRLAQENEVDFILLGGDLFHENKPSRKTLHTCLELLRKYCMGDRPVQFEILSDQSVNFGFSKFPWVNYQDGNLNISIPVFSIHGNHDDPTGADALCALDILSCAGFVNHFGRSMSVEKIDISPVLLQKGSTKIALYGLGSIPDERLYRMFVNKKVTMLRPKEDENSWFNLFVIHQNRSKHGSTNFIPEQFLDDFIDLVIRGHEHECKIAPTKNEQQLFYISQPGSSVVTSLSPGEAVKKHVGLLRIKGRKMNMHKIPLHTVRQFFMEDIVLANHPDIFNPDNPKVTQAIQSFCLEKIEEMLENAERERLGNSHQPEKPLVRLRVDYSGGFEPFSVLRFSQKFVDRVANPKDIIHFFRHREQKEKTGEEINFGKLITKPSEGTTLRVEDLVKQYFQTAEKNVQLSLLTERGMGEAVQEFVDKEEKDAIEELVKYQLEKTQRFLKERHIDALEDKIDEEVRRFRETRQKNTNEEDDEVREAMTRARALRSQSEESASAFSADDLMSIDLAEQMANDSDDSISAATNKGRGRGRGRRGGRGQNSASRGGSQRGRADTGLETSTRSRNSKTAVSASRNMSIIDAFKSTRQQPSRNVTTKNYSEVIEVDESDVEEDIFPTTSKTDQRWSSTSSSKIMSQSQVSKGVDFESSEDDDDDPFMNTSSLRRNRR", "assay": "EMSA", "data": [{"binder": "B1", "values": [{"measurement": "binding result", "value": "binds"}]}, {"binder": "B2", "values": [{"measurement": "binding result", "value": "binds"}]}]}
